Experiment: yeast display, Sf9 membrane polyspecificity reagent, FACS + sequencing; frameworks hold sequencing errors
How it was run: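 Sorting gates, low and high (top ~1%), were placed on anti-HA fluorescence to track expression and on streptavidin fluorescence to track reagent binding. A clone's polyreactivity label is taken from the gate it came out of. The reagent was 10% biotinylated, detergent-solubilized Sf9 membrane, applied for 1 hour at 4 °C to galactose-induced yeast display cells.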

Row | Sequence | polyreactivity (PSR sort gate)
1 | QVQLVESGGGLVQAGGSLRLSCSASGRTFGGNAMGWSRPAPGKERELVAAIARSGGTTYYADSVKGRFTISRDNAKNTVYLQMNSLKPEDTAVYYCNTRRYGAMYYWGQGTQVTVSS | high polyreactivity
2 | QVQLVESGGGLVQAGGSLRLSCSASGRTFHYYAMGWYRQAPGKERELVAVIRYSGGRTYYADSVKGRFTISRDNAKNTVYLQMNSLKPEDTAVYYCNKGRWRTDQPVYLIAFDYWGQGTQVTVTS | low polyreactivity
3 | QVQLVESGGGLVQAGGSLRLSCSASGRTFSAYAMGWDRPAPGKERELVARITSVDSTNYADSVKGRFTISRDNAKNSVYLKMNSLTPEDTAVYYCNATFCYPFFDYDDYWGQGTQVTVSS | low polyreactivity
4 | QVQLVESGGGLVQAGGSLRLSCSASGRTFYEYAMGWYIQAPGKERELVAGITSGGSTNYADSVKGRFTISRDNAKNTVYLQMNSLKPEDTAVYYCAATYWGYEYDYWGQGTQVTVSS | low polyreactivity
5 | QVQLVESGGGLVQAGGSLRLSCSASGSIFGIYTMGWYRQAPGKERELVAAINSGGSTNYADSVKGRFTISRDNAKNTVYLQMNSLKPEDTAVYYCAAGGSSSWAFNYWGQGTQVTVSS | low polyreactivity
6 | QVQLVESGGGLVQAGGSLRLSCSASGSIFLYYTMGWYRQEPGKERELVAAITWSGASTYYADSVKGRFTISRDNGKITVYLQMNSLKPEDTAVYYCATRYRYRYCGQGTQVTVSS | high polyreactivity
7 | QVQLVESGGGLVQAGGSLRLSCSASGSIFPTYAMGWYRKAPGKERELVAAIRSGSNTYYADSVKGRFTISRDNAKNTVYLQMNSLKPEDTAVYYCNKATNLSGGYDSWGQGTQVTVSS | low polyreactivity
8 | QVQLVESGGGLVQAGGSLRLSCSASGSIFRFNAKGWYRQAPGKERELVASSRWDTASTYYADSVKGRFTISRDNAKNTVYLQMNSLKPEDTAVYYCNAGRPRFYRSRWYYYGYGYWGQGTQVTVSS | high polyreactivity
9 | QVQLVESGGGLVQAGGSLRLSCSASGSIFRYYAMGWYRQPPGKEREFVASITYRGGRTYYADSVKGRFTISRDNAKKTVYLQMNSLKPEDTAVYYCAARTRAGAWTSKYHDYWGEGTQVTVSS | high polyreactivity
10 | QVQLVESGGGLVQAGGSLRLSCSASGSIFSHYVMGWYRQAPGKERELVAAISPSGDSTYYADSVKGRFTISRDNAKNTVYLQMNSLKPEDTAVYYCNAGFGQYRYRGHDDYWGQGTQVTVSS | high polyreactivity
11 | QVQLVESGGGLVQAGGSLRLSCSASGSIFWYNAMGWYRHAPGKERELVAAISRSGSRTYYADSVKGRFTISRDYAKNTVYLQMNSLKPEDTAVYYCARVRPRVLYFVLHYDYWGQGTQVTVSS | high polyreactivity
12 | QVQLVESGGGLVQAGGSLRLSCSASGSIFYTYAMGWYRQAPGKERELVAAISRSGGITYYADSVKGRFTISRDNAKNTVYLEMNSLKPEDTAVYFCNVASASPGRYDYWGQGTQVTLSS | high polyreactivity
13 | QVQLVESGGGLVQAGGSLRLSCSASGSISYYNAMAWYRQAPGKERELVASITRRGGTTNYAESVKGRFSISRDNAKHTVYLQMNSLKPEDTAVYNCNAEYPYWTPDYNYRFDYWGQGTQVTVSS | high polyreactivity
14 | QVQLVESGGGLVQAGGSLRLSCSASGSTFGQYAMGWYRHAPGKERELVAAISRGGGSTYYADSVKGRFTISRDNAKYTVYLQMNSLKPEDTAVYYCNALSARSYYWGQGTQVTVSS | high polyreactivity
15 | QVQLVESGGGLVQAGGSLRLSCSASGSTFHPYAMGWYRQAPGKERELVAAINSGDNTYYADSVKGRFTITRDNAKNTVYLQMNSLKPEDTAVYYCAVRYWDESHTEYDYWGQGTQVTVSS | low polyreactivity
16 | QVQLVESGGGLVQAGGSLRLSCSASGSTFPSNAMGWYRQAPGKERELVAAIRGRGGSTYYADSVKGRFTISRDNAKNTVYLQMNSLKPEDTAVYYCAKKVRSYVRWEYDYWGQGTQVTVSS | low polyreactivity
17 | QVQLVESGGGLVQAGGSLRLSCSASGSTFSRYAMGWYRQAPGKEREFVAAISQRGGSTYYADSVKGRFTISRDNAKNTVYLQMNSLKPEDTAVYYCAARRVPQLDDYWGQGTQVTVSS | high polyreactivity

Source: the nanobody polyreactivity screen of Harvey et al. (2022)
